Data on 72 molecules can be found in patent US20250011363A1, “OPTIMIZED SHORTENED PEPTIDE THAT BINDS TO ACETYLCHOLINE RECEPTOR, AND USE THEREOF” (SKINMED CO., LTD., priority 2021, published 2025).

The assay concerns the target acetylcholine receptor. In words: SPR, AchR immobilised on CM5 chip, peptide at 10 uM.

B1: 5mer-1182 (peptide)
peptide: REKWK
For B1, the Binding affinity (RU) was found to be 15 RU.

B2: 5mer-1191 (peptide)
peptide: RMDWK
With B2, the Binding affinity (RU) stood at 30 RU.

B3: 5mer-1198 (peptide)
peptide: RAADK
Molecule B3 returned a Binding affinity (RU) of 25 RU.

B4: 5mer-892 (peptide)
peptide: RKPMR
On to B4, for which the Binding affinity (RU) was 29 RU.

B5: 5mer-879 (peptide)
peptide: KDCMK
The molecule B5 gave a Binding affinity (RU) of 13 RU.

B6: 6mer-1-407 (peptide)
peptide: KRLRTR
Consider B6, for which the Binding affinity (RU) stood at 153 RU.

B7: 5mer-1176 (peptide)
peptide: KIHFK
B7 had a Binding affinity (RU) of 25 RU.

B8: 5mer-885 (peptide)
peptide: RHCNR
As for B8, the Binding affinity (RU) stood at 19 RU.

B9: 5mer-1171 (peptide)
peptide: RCSWK
Take B9: the Binding affinity (RU) was found to be 21 RU.

B10: 5mer-1173 (peptide)
peptide: KECKR
On to B10, for which the Binding affinity (RU) was found to be 30 RU.

B11: 5mer-889 (peptide)
peptide: KTPGR
B11 registered a Binding affinity (RU) of 25 RU.

B12: 5mer-875 (peptide)
peptide: KHCNK
B12 yielded a Binding affinity (RU) of 33 RU.

B13: 5mer-894 (peptide)
peptide: KMSPR
Consider B13, for which the Binding affinity (RU) stood at 18 RU.

B14: 5mer-883 (peptide)
peptide: KMSAK
B14 displayed a Binding affinity (RU) of 16 RU.

B15: 6mer-1-403 (peptide)
peptide: KRSQTK
With B15, the Binding affinity (RU) was 153 RU.

B16: 6mer-1-402 (peptide)
peptide: RRRVLR
B16 gave a Binding affinity (RU) of 153 RU.

B17: 5mer-872 (peptide)
peptide: RKKWK
Take B17: the Binding affinity (RU) was 29 RU.

B18: 5mer-1170 (peptide)
peptide: KHSEK
B18 showed a Binding affinity (RU) of 28 RU.

B19: 5mer-898 (peptide)
peptide: RYCMR
With B19, the Binding affinity (RU) stood at 20 RU.

B20: 5mer-1194 (peptide)
peptide: RDNGK
In turn, B20 showed a Binding affinity (RU) of 18 RU.

B21: 5mer-1196 (peptide)
peptide: RICIR
Molecule B21 came in with a Binding affinity (RU) of 24 RU.

B22: 5mer-1185 (peptide)
peptide: KPTGR
With B22, the Binding affinity (RU) was found to be 30 RU.

B23: 5mer-888 (peptide)
peptide: KKCIR
As to B23, the Binding affinity (RU) worked out at 31 RU.

B24: 6mer-1-406 (peptide)
peptide: RKVLLR
The molecule B24 registered a Binding affinity (RU) of 153 RU.

B25: 5mer-1168 (peptide)
peptide: RHHWR
As to B25, the Binding affinity (RU) worked out at 31 RU.

B26: 5mer-868 (peptide)
peptide: KMHFK
B26 gave a Binding affinity (RU) of 18 RU.

B27: 5mer-1179 (peptide)
peptide: RMNVR
For B27, the Binding affinity (RU) amounted to 18 RU.

B28: 5mer-1169 (peptide)
peptide: KDTPK
Consider B28, for which the Binding affinity (RU) was 29 RU.

B29: 6mer-1-410 (peptide)
peptide: KRVLRK
B29: the Binding affinity (RU) was 148 RU.

B30: 5mer-1167 (peptide)
peptide: KESWK
The molecule B30 gave a Binding affinity (RU) of 12 RU.

B31: 5mer-887 (peptide)
peptide: KTPVR
With B31, the Binding affinity (RU) came out at 30 RU.

B32: 5mer-890 (peptide)
peptide: KKHFK
The molecule B32 came in with a Binding affinity (RU) of 33 RU.

B33: 5mer-1193 (peptide)
peptide: KHWFK
Molecule B33 came in with a Binding affinity (RU) of 22 RU.

B34: 5mer-884 (peptide)
peptide: KIWEK
As for B34, the Binding affinity (RU) was determined as 28 RU.

B35: 5mer-886 (peptide)
peptide: RMMFR
B35 came in with a Binding affinity (RU) of 21 RU.

B36: 5mer-1175 (peptide)
peptide: RDMIR
In turn, B36 displayed a Binding affinity (RU) of 30 RU.

B37: 5mer-1186 (peptide)
peptide: KMWVK
For the molecule B37, the Binding affinity (RU) is 12 RU.

B38: 6mer-1-409 (peptide)
peptide: RRWISR
B38 showed a Binding affinity (RU) of 144 RU.

B39: 5mer-1192 (peptide)
peptide: RYAKK
B39: the Binding affinity (RU) turned out to be 28 RU.

B40: 5mer-1172 (peptide)
peptide: KIWWR
B40 returned a Binding affinity (RU) of 25 RU.

B41: 6mer-1-404 (peptide)
peptide: KKQRQK
B41 displayed a Binding affinity (RU) of 137 RU.

B42: 6mer-1-1405 (peptide)
peptide: KKVQTR
With B42, the Binding affinity (RU) is 148 RU.

B43: 5mer-870 (peptide)
peptide: RCKVK
Turning to B43, the Binding affinity (RU) worked out at 25 RU.

B44: 5mer-1180 (peptide)
peptide: KETAK
In turn, B44 showed a Binding affinity (RU) of 27 RU.

B45: 5mer-878 (peptide)
peptide: KHTER
The molecule B45 returned a Binding affinity (RU) of 24 RU.

B46: 5mer-882 (peptide)
peptide: REEGR
On to B46, for which the Binding affinity (RU) was 18 RU.

B47: 5mer-1184 (peptide)
peptide: RDSMK
B47 showed a Binding affinity (RU) of 14 RU.

B48: 5mer-893 (peptide)
peptide: RIKIK
The molecule B48 displayed a Binding affinity (RU) of 18 RU.

B49: 5mer-1183 (peptide)
peptide: RHAPK
Regarding B49, the Binding affinity (RU) was determined as 13 RU.

B50: 5mer-1177 (peptide)
peptide: KIPVR
Turning to B50, the Binding affinity (RU) amounted to 20 RU.

B51: 5mer-897 (peptide)
peptide: KFCER
As to B51, the Binding affinity (RU) was 30 RU.

B52: 5mer-1178 (peptide)
peptide: RFDNR
The molecule B52 gave a Binding affinity (RU) of 22 RU.

B53: 5mer-876 (peptide)
peptide: KETAR
Take B53: the Binding affinity (RU) worked out at 16 RU.

B54: 5mer-880 (peptide)
peptide: RCDKK
Take B54: the Binding affinity (RU) was 17 RU.

B55: 5mer-1174 (peptide)
peptide: KYSGK
As to B55, the Binding affinity (RU) was found to be 25 RU.

B56: 6mer-1-408 (peptide)
peptide: KRGRSR
B56 returned a Binding affinity (RU) of 147 RU.

B57: 5mer-1181 (peptide)
peptide: KKAKR
B57 returned a Binding affinity (RU) of 22 RU.

B58: 5mer-896 (peptide)
peptide: RYHWR
In the case of B58, the Binding affinity (RU) was 27 RU.

B59: 5mer-895 (peptide)
peptide: RFTKK
With B59, the Binding affinity (RU) worked out at 18 RU.

B60: 5mer-874 (peptide)
peptide: RIHMR
In turn, B60 returned a Binding affinity (RU) of 27 RU.

B61: 5mer-1188 (peptide)
peptide: KPSGK
In turn, B61 came in with a Binding affinity (RU) of 30 RU.

B62: 5mer-1190 (peptide)
peptide: RFSEK
In turn, B62 registered a Binding affinity (RU) of 32 RU.

B63: 5mer-1197 (peptide)
peptide: KDDAR
With B63, the Binding affinity (RU) came out at 24 RU.

B64: 5mer-871 (peptide)
peptide: RHSHR
In the case of B64, the Binding affinity (RU) was 21 RU.

B65: 5mer-881 (peptide)
peptide: RNDAK
In turn, B65 gave a Binding affinity (RU) of 31 RU.

B66: 5mer-873 (peptide)
peptide: RYNFR
In turn, B66 registered a Binding affinity (RU) of 32 RU.

B67: 5mer-1189 (peptide)
peptide: RKMDK
The molecule B67 returned a Binding affinity (RU) of 11 RU.

B68: 5mer-869 (peptide)
peptide: KKHPK
In the case of B68, the Binding affinity (RU) amounted to 31 RU.

B69: 5mer-891 (peptide)
peptide: RKKMK
The molecule B69 showed a Binding affinity (RU) of 24 RU.

B70: 5mer-877 (peptide)
peptide: RFSMR
Consider B70, for which the Binding affinity (RU) was found to be 17 RU.

B71: 5mer-1195 (peptide)
peptide: RHWEK
As for B71, the Binding affinity (RU) amounted to 19 RU.

B72: 5mer-1187 (peptide)
peptide: KHHIR
As to B72, the Binding affinity (RU) stood at 27 RU.
